From IntAct's records for PubMed 22796944 come the findings set out here.

Experiment [1] concerns the target rtf1_yeast RTF1 (UniProt P53064).
For experiment [2], the target named is cdc73_yeast CDC73 (UniProt Q06697).
Chain of cdc73_yeast CDC73 (Q06697 whole entry): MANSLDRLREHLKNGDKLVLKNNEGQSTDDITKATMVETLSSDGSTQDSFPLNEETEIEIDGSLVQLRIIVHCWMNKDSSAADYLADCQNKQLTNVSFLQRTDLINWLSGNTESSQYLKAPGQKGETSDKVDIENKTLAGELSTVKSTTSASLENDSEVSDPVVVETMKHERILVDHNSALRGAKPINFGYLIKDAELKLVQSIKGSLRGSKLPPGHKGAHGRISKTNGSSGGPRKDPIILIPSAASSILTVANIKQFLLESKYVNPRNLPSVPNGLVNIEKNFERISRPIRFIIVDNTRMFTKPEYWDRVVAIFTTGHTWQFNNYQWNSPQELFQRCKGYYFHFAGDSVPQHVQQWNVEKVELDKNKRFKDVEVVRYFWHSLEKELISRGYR

Chain of rtf1_yeast RTF1 (P53064 whole entry): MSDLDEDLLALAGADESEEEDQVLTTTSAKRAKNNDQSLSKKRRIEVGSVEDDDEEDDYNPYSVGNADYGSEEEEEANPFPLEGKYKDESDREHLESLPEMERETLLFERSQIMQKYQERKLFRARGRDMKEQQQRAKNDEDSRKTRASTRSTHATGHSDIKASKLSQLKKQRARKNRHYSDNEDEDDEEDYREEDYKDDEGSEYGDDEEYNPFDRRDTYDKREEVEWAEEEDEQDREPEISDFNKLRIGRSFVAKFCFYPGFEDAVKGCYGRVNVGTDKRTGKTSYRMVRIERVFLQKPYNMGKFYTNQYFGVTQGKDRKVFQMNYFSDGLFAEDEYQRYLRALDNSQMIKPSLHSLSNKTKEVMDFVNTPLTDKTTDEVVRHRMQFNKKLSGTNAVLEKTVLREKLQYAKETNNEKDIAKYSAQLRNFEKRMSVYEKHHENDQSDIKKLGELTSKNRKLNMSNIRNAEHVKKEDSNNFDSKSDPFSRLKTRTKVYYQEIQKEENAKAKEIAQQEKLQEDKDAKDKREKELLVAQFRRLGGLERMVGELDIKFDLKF

On to “DNA-directed RNA polymerase II subunit RPB1 (Saccharomyces cerevisiae), P04050 S1560D”, for which the “effect of a mutation on the interaction” value in experiment [1] is on record as “disrupting interaction”; in experiment [2], “decreasing interaction”.

As for “DNA-directed RNA polymerase II subunit RPB1 (Saccharomyces cerevisiae), P04050 S1557D”, the “effect of a mutation on the interaction” value in experiment [1] is on record as “disrupting interaction”; in experiment [2], “decreasing interaction”.
